Experimental data published in the supplement of paper PMC10567573.

B1: KLHL12 (parent)
chain: LDYTADEDGVWYSVAPMNVRRGLA

Variants of: B1
Assay: protein stability index of a GFP-peptide fusion (GPS, HEK-293T) (PSI 1-6); higher = more stable
Conditions: c terminus: a fixed tail appended
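Also: lentivirally expressed fusions sorted by FACS into six bins by GFP to DsRed ratio, PSI derived from sequencing read proportions per bin multiplied by bin number.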

Variant | protein stability index
LDYTAREDGVWYSVAPMNVRRGLA [D6R] | 2.47
LDYTAEEDGVWYSVAPMNVRRGLA [D6E] | 2.16
LDYTACEDGVWYSVAPMNVRRGLA [D6C] | 2.61
LDYTANEDGVWYSVAPMNVRRGLA [D6N] | 1.27
LDYTAYEDGVWYSVAPMNVRRGLA [D6Y] | 1.51
LDYTAFEDGVWYSVAPMNVRRGLA [D6F] | 2.98
LDYTATEDGVWYSVAPMNVRRGLA [D6T] | 1.91
LDYTAPEDGVWYSVAPMNVRRGLA [D6P] | 2.46
LDYTAIEDGVWYSVAPMNVRRGLA [D6I] | 1.4
LDYTAWEDGVWYSVAPMNVRRGLA [D6W] | 2.71
LDYTAAEDGVWYSVAPMNVRRGLA [D6A] | 1.93
LDYTAGEDGVWYSVAPMNVRRGLA [D6G] | 2.36
LDYTALEDGVWYSVAPMNVRRGLA [D6L] | 2.08
LDYTAKEDGVWYSVAPMNVRRGLA [D6K] | 2.44
LDYTAHEDGVWYSVAPMNVRRGLA [D6H] | 1.85
LDYTAQEDGVWYSVAPMNVRRGLA [D6Q] | 1.7
LDYTAMEDGVWYSVAPMNVRRGLA [D6M] | 2.18
LDYTASEDGVWYSVAPMNVRRGLA [D6S] | 1.91
LDYTAVEDGVWYSVAPMNVRRGLA [D6V] | 1.99
LDYTADCDGVWYSVAPMNVRRGLA [E7C] | 1.65
LDYTADTDGVWYSVAPMNVRRGLA [E7T] | 1.64
LDYTADGDGVWYSVAPMNVRRGLA [E7G] | 1.7
LDYTADQDGVWYSVAPMNVRRGLA [E7Q] | 2.43
LDYTADFDGVWYSVAPMNVRRGLA [E7F] | 2.55

Variant | protein stability index
LDYTADHDGVWYSVAPMNVRRGLA [E7H] | 1.89
LDYTADRDGVWYSVAPMNVRRGLA [E7R] | 2.77
LDYTADWDGVWYSVAPMNVRRGLA [E7W] | 2.19
LDYTADSDGVWYSVAPMNVRRGLA [E7S] | 1.8
LDYTADKDGVWYSVAPMNVRRGLA [E7K] | 2.01
LDYTADVDGVWYSVAPMNVRRGLA [E7V] | 1.44
LDYTADPDGVWYSVAPMNVRRGLA [E7P] | 2.02
LDYTADADGVWYSVAPMNVRRGLA [E7A] | 1.28
LDYTADYDGVWYSVAPMNVRRGLA [E7Y] | 1.95
LDYTADNDGVWYSVAPMNVRRGLA [E7N] | 2.09
LDYTADLDGVWYSVAPMNVRRGLA [E7L] | 2.79
LDYTADMDGVWYSVAPMNVRRGLA [E7M] | 1.91
LDYTADIDGVWYSVAPMNVRRGLA [E7I] | 2.43
LDYTADDDGVWYSVAPMNVRRGLA [E7D] | 1.46
LDYTADECGVWYSVAPMNVRRGLA [D8C] | 2.81
LDYTADEAGVWYSVAPMNVRRGLA [D8A] | 1.67
LDYTADEEGVWYSVAPMNVRRGLA [D8E] | 2.79
LDYTADEWGVWYSVAPMNVRRGLA [D8W] | 2.1
LDYTADENGVWYSVAPMNVRRGLA [D8N] | 1.42
LDYTADEGGVWYSVAPMNVRRGLA [D8G] | 1.74
LDYTADEKGVWYSVAPMNVRRGLA [D8K] | 2.24
LDYTADEYGVWYSVAPMNVRRGLA [D8Y] | 2.23
LDYTADEVGVWYSVAPMNVRRGLA [D8V] | 1.6
LDYTADERGVWYSVAPMNVRRGLA [D8R] | 1.56

Variant | protein stability index
LDYTADEFGVWYSVAPMNVRRGLA [D8F] | 1.21
LDYTADEPGVWYSVAPMNVRRGLA [D8P] | 2.26
LDYTADEIGVWYSVAPMNVRRGLA [D8I] | 1.96
LDYTADEHGVWYSVAPMNVRRGLA [D8H] | 1.82
LDYTADETGVWYSVAPMNVRRGLA [D8T] | 1.48
LDYTADEQGVWYSVAPMNVRRGLA [D8Q] | 2.49
LDYTADESGVWYSVAPMNVRRGLA [D8S] | 2.69
LDYTADELGVWYSVAPMNVRRGLA [D8L] | 1.73
LDYTADEMGVWYSVAPMNVRRGLA [D8M] | 1.93
LDYTVDEDGVWYSVAPMNVRRGLA [A5V] | 2.02
LDYTQDEDGVWYSVAPMNVRRGLA [A5Q] | 2.06
LDYTLDEDGVWYSVAPMNVRRGLA [A5L] | 1.29
LDYTIDEDGVWYSVAPMNVRRGLA [A5I] | 2.99
LDYTGDEDGVWYSVAPMNVRRGLA [A5G] | 2.08
LDYTYDEDGVWYSVAPMNVRRGLA [A5Y] | 2.6
LDYTMDEDGVWYSVAPMNVRRGLA [A5M] | 2.05
LDYTSDEDGVWYSVAPMNVRRGLA [A5S] | 1.8
LDYTTDEDGVWYSVAPMNVRRGLA [A5T] | 1.94
LDYTFDEDGVWYSVAPMNVRRGLA [A5F] | 1.37
LDYTRDEDGVWYSVAPMNVRRGLA [A5R] | 2.15
LDYTHDEDGVWYSVAPMNVRRGLA [A5H] | 1.93
LDYTPDEDGVWYSVAPMNVRRGLA [A5P] | 2.23
LDYTWDEDGVWYSVAPMNVRRGLA [A5W] | 2.46
LDYTNDEDGVWYSVAPMNVRRGLA [A5N] | 2.19

Variant | protein stability index
LDYTKDEDGVWYSVAPMNVRRGLA [A5K] | 2.35
LDYTADEDNVWYSVAPMNVRRGLA [G9N] | 2.5
LDYTADEDMVWYSVAPMNVRRGLA [G9M] | 2.26
LDYTADEDTVWYSVAPMNVRRGLA [G9T] | 2.15
LDYTADEDEVWYSVAPMNVRRGLA [G9E] | 2.33
LDYTADEDLVWYSVAPMNVRRGLA [G9L] | 1.61
LDYTADEDKVWYSVAPMNVRRGLA [G9K] | 1.75
LDYTADEDDVWYSVAPMNVRRGLA [G9D] | 2.63
LDYTADEDQVWYSVAPMNVRRGLA [G9Q] | 2.21
LDYTADEDHVWYSVAPMNVRRGLA [G9H] | 2.2
LDYTADEDFVWYSVAPMNVRRGLA [G9F] | 1.99
LDYTADEDCVWYSVAPMNVRRGLA [G9C] | 1.47
LDYTADEDYVWYSVAPMNVRRGLA [G9Y] | 2.37
LDYTADEDIVWYSVAPMNVRRGLA [G9I] | 1.88
LDYTADEDPVWYSVAPMNVRRGLA [G9P] | 2.75
LDYTADEDSVWYSVAPMNVRRGLA [G9S] | 2.03
LDYTADEDAVWYSVAPMNVRRGLA [G9A] | 2.17
LDYTADEDRVWYSVAPMNVRRGLA [G9R] | 1.75
LDYTADEDVVWYSVAPMNVRRGLA [G9V] | 1.82
LDYTADEDWVWYSVAPMNVRRGLA [G9W] | 1.94
LDYTADEDGCWYSVAPMNVRRGLA [V10C] | 2.44
LDYTADEDGAWYSVAPMNVRRGLA [V10A] | 3.22
